Reference: US20080199851A1
Values joined by “and” are separate entries in the source; they are usually repeats but may differ in a detail not shown here. Equal entries are not always repeated.

Assays:
[1] = molecular target: Inactivated influenza B virus Hong Kong 5/72 (Influenza B virus Hong Kong 5/72); experiment: lateral-flow sandwich, B line: M2110171 striped + 2/3-Eu
[2] = molecular target: Inactivated influenza B virus Hong Kong 5/72 (Influenza B virus Hong Kong 5/72); experiment: lateral-flow sandwich, M2110171 line + 2/3-gold, 0.021 HA/test
[3] = molecular target: Inactivated influenza B virus Hong Kong 5/72 (Influenza B virus Hong Kong 5/72); experiment: lateral-flow sandwich, M2110171 line + 2/3-gold, 0.041 HA/test
[4] = molecular target: Inactivated influenza B virus Hong Kong 5/72 (Influenza B virus Hong Kong 5/72); experiment: lateral-flow sandwich, M2110171 line + 2/3-gold, 0.082 HA/test
[5] = molecular target: Inactivated influenza B virus Hong Kong 5/72 (Influenza B virus Hong Kong 5/72); experiment: lateral-flow sandwich, M2110171 line + 2/3-gold, 0.164 HA/test
[6] = molecular target: Inactivated influenza B virus Hong Kong 5/72 (Influenza B virus Hong Kong 5/72); experiment: lateral-flow sandwich, M2110171 line + 2/3-Eu, 0.0021 HA units
[7] = molecular target: Inactivated influenza B virus Hong Kong 5/72 (Influenza B virus Hong Kong 5/72); experiment: lateral-flow sandwich, M2110171 line + 2/3-Eu, 0.0041 HA units
[8] = molecular target: Inactivated influenza B virus Hong Kong 5/72 (Influenza B virus Hong Kong 5/72); experiment: lateral-flow sandwich, M2110171 line + 2/3-Eu, 0.0082 HA units
[9] = molecular target: Inactivated influenza B virus Hong Kong 5/72 (Influenza B virus Hong Kong 5/72); experiment: lateral-flow sandwich, M2110171 line + 2/3-Eu, 0.0123 HA units
[10] = molecular target: Inactivated influenza B virus Hong Kong 5/72 (Influenza B virus Hong Kong 5/72); experiment: lateral-flow sandwich, M2110171 line + 2/3-Eu, 0.0164 HA units
[11] = molecular target: Inactivated influenza B virus Hong Kong 5/72 (Influenza B virus Hong Kong 5/72); experiment: lateral-flow sandwich, M2110171 line + 2/3-Eu, 0.0328 HA units
[12] = molecular target: Inactivated influenza B virus Hong Kong 5/72 (Influenza B virus Hong Kong 5/72); experiment: lateral-flow sandwich, M2110171 line + 2/3-Eu, 0.002 HA units/test
[13] = molecular target: Inactivated influenza B virus Hong Kong 5/72 (Influenza B virus Hong Kong 5/72); experiment: lateral-flow sandwich, M2110171 line + 2/3-Eu, 0.004 HA units/test
[14] = molecular target: Inactivated influenza B virus Hong Kong 5/72 (Influenza B virus Hong Kong 5/72); experiment: lateral-flow sandwich, M2110171 line + 2/3-Eu, 0.008 HA units/test
[15] = molecular target: Inactivated influenza B virus Hong Kong 5/72 (Influenza B virus Hong Kong 5/72); experiment: lateral-flow sandwich, M2110171 line + 2/3-Eu, 0.016 HA units/test
[16] = molecular target: Inactivated influenza B virus Hong Kong 5/72 (Influenza B virus Hong Kong 5/72); experiment: lateral-flow sandwich, M2110171 line + 2/3-Eu, 0.032 HA units/test
[17] = molecular target: Inactivated influenza B virus Hong Kong 5/72 (Influenza B virus Hong Kong 5/72); experiment: lateral-flow sandwich, M2110171 line + 2/3-Eu, 0.002 HA units/test, against 0 HA
[18] = molecular target: Inactivated influenza B virus Hong Kong 5/72 (Influenza B virus Hong Kong 5/72); experiment: lateral-flow sandwich, M2110171 line + 2/3-Eu, 0.004 HA units/test, against 0 HA
[19] = molecular target: Inactivated influenza B virus Hong Kong 5/72 (Influenza B virus Hong Kong 5/72); experiment: lateral-flow sandwich, M2110171 line + 2/3-Eu, 0.008 HA units/test, against 0 HA
[20] = molecular target: Inactivated influenza B virus Hong Kong 5/72 (Influenza B virus Hong Kong 5/72); experiment: lateral-flow sandwich, M2110171 line + 2/3-Eu, 0.016 HA units/test, against 0 HA
[21] = molecular target: Inactivated influenza B virus Hong Kong 5/72 (Influenza B virus Hong Kong 5/72); experiment: lateral-flow sandwich, M2110171 line + 2/3-Eu, 0.032 HA units/test, against 0 HA
[22] = molecular target: Inactivated influenza B virus Hong Kong 5/72 (Influenza B virus Hong Kong 5/72); experiment: lateral-flow sandwich, A line: 7304 striped + M4090913-Eu
[23] = molecular target: Inactivated influenza A virus Texas 1/77 (H3N2) (Influenza A virus Texas 1/77 (H3N2)); experiment: lateral-flow sandwich, 7304 line + M4090913-gold, 0.21 HA/test
[24] = molecular target: Inactivated influenza A virus Texas 1/77 (H3N2) (Influenza A virus Texas 1/77 (H3N2)); experiment: lateral-flow sandwich, 7304 line + M4090913-gold, 0.41 HA/test
[25] = molecular target: Inactivated influenza A virus Texas 1/77 (H3N2) (Influenza A virus Texas 1/77 (H3N2)); experiment: lateral-flow sandwich, 7304 line + M4090913-gold, 0.82 HA/test
[26] = molecular target: Inactivated influenza A virus Texas 1/77 (H3N2) (Influenza A virus Texas 1/77 (H3N2)); experiment: lateral-flow sandwich, 7304 line + M4090913-gold, 1.64 HA/test
[27] = molecular target: Inactivated influenza A virus Texas 1/77 (H3N2) (Influenza A virus Texas 1/77 (H3N2)); experiment: lateral-flow sandwich, 7304 line + M4090913-Eu, 0.021 HA units
[28] = molecular target: Inactivated influenza A virus Texas 1/77 (H3N2) (Influenza A virus Texas 1/77 (H3N2)); experiment: lateral-flow sandwich, 7304 line + M4090913-Eu, 0.041 HA units
[29] = molecular target: Inactivated influenza A virus Texas 1/77 (H3N2) (Influenza A virus Texas 1/77 (H3N2)); experiment: lateral-flow sandwich, 7304 line + M4090913-Eu, 0.082 HA units
[30] = molecular target: Inactivated influenza A virus Texas 1/77 (H3N2) (Influenza A virus Texas 1/77 (H3N2)); experiment: lateral-flow sandwich, 7304 line + M4090913-Eu, 0.123 HA units
[31] = molecular target: Inactivated influenza A virus Texas 1/77 (H3N2) (Influenza A virus Texas 1/77 (H3N2)); experiment: lateral-flow sandwich, 7304 line + M4090913-Eu, 0.164 HA units
[32] = molecular target: Inactivated influenza A virus Texas 1/77 (H3N2) (Influenza A virus Texas 1/77 (H3N2)); experiment: lateral-flow sandwich, 7304 line + M4090913-Eu, 0.328 HA units
[33] = molecular target: Inactivated influenza A virus Texas 1/77 (H3N2) (Influenza A virus Texas 1/77 (H3N2)); experiment: lateral-flow sandwich, 7304 line + M4090913-Eu, 1 HA unit/test
[34] = molecular target: Inactivated influenza A virus Texas 1/77 (H3N2) (Influenza A virus Texas 1/77 (H3N2)); experiment: lateral-flow sandwich, 7304 line + M4090913-Eu, 0.021 HA unit
[35] = molecular target: Inactivated influenza A virus Texas 1/77 (H3N2) (Influenza A virus Texas 1/77 (H3N2)); experiment: lateral-flow sandwich, 7304 line + M4090913-gold, 0.105 HA/test
[36] = molecular target: Inactivated influenza A virus Texas 1/77 (H3N2) (Influenza A virus Texas 1/77 (H3N2)); experiment: lateral-flow sandwich, 7304 line + M4090913-Eu, 0.1 HA units/test
[37] = molecular target: Inactivated influenza A virus Texas 1/77 (H3N2) (Influenza A virus Texas 1/77 (H3N2)); experiment: lateral-flow sandwich, 7304 line + M4090913-Eu, 0.01 HA units/test
[38] = molecular target: Inactivated influenza A virus Texas 1/77 (H3N2) (Influenza A virus Texas 1/77 (H3N2)); experiment: lateral-flow sandwich, 7304 line + M4090913-Eu, 0.02 HA units/test
[39] = molecular target: Inactivated influenza A virus Texas 1/77 (H3N2) (Influenza A virus Texas 1/77 (H3N2)); experiment: lateral-flow sandwich, 7304 line + M4090913-Eu, 0.04 HA units/test
[40] = molecular target: Inactivated influenza A virus Texas 1/77 (H3N2) (Influenza A virus Texas 1/77 (H3N2)); experiment: lateral-flow sandwich, 7304 line + M4090913-Eu, 1 HA unit/test, against 0 HA
[41] = molecular target: Inactivated influenza A virus Texas 1/77 (H3N2) (Influenza A virus Texas 1/77 (H3N2)); experiment: lateral-flow sandwich, 7304 line + M4090913-Eu, 0.1 HA units/test, against 0 HA
[42] = molecular target: Inactivated influenza A virus Texas 1/77 (H3N2) (Influenza A virus Texas 1/77 (H3N2)); experiment: lateral-flow sandwich, 7304 line + M4090913-Eu, 0.01 HA units/test, against 0 HA
[43] = molecular target: Inactivated influenza A virus Texas 1/77 (H3N2) (Influenza A virus Texas 1/77 (H3N2)); experiment: lateral-flow sandwich, 7304 line + M4090913-Eu, 0.02 HA units/test, against 0 HA
[44] = molecular target: Inactivated influenza A virus Texas 1/77 (H3N2) (Influenza A virus Texas 1/77 (H3N2)); experiment: lateral-flow sandwich, 7304 line + M4090913-Eu, 0.04 HA units/test, against 0 HA
[45] = molecular target: Inactivated influenza B virus Hong Kong 5/72 (Influenza B virus Hong Kong 5/72)
[46] = molecular target: Inactivated influenza B virus Hong Kong 5/72 (Influenza B virus Hong Kong 5/72); experiment: lateral-flow sandwich, 9901 line + 2/3-Eu, 0.0021 HA units
[47] = molecular target: Inactivated influenza B virus Hong Kong 5/72 (Influenza B virus Hong Kong 5/72); experiment: lateral-flow sandwich, 9901 line + 2/3-Eu, 0.0041 HA units
[48] = molecular target: Inactivated influenza B virus Hong Kong 5/72 (Influenza B virus Hong Kong 5/72); experiment: lateral-flow sandwich, 9901 line + 2/3-Eu, 0.0082 HA units
[49] = molecular target: Inactivated influenza B virus Hong Kong 5/72 (Influenza B virus Hong Kong 5/72); experiment: lateral-flow sandwich, 9901 line + 2/3-Eu, 0.0123 HA units
[50] = molecular target: Inactivated influenza B virus Hong Kong 5/72 (Influenza B virus Hong Kong 5/72); experiment: lateral-flow sandwich, 9901 line + 2/3-Eu, 0.0164 HA units
[51] = molecular target: Inactivated influenza B virus Hong Kong 5/72 (Influenza B virus Hong Kong 5/72); experiment: lateral-flow sandwich, 9901 line + 2/3-Eu, 0.0328 HA units

Anti-Flu B nucleoprotein M2110171 (Fitzgerald) (antibody)
Signal/noise of test line [1]: 437
Peak Intensity [2]: 2.8 and 2.7
Peak Intensity(avg) [2]: 2.78
Peak Intensity [3]: 4.8 and 4.6
Peak Intensity(avg) [3]: 4.67
Peak Intensity [4]: 7.3 and 8.2
Peak Intensity(avg) [4]: 7.76
Peak Intensity [5]: 14.4 and 13.3
Peak Intensity(avg) [5]: 13.8
fluorescence intensity (AVG) [6]: 1380
fluorescence intensity (AVG) [7]: 2670
fluorescence intensity (AVG) [8]: 3590
fluorescence intensity (AVG) [9]: 6550
fluorescence intensity (AVG) [10]: 7130
fluorescence intensity (AVG) [11]: 12800
Net peak height [12]: 496 and 539
Net peak height (AVG) [12]: 517
Net peak height [13]: 884 and 896
Net peak height (AVG) [13]: 890
Net peak height [14]: 1630 and 1700
Net peak height (AVG) [14]: 1670
Net peak height [15]: 3330 and 2570
Net peak height (AVG) [15]: 2950
Net peak height [16]: 7200 and 6970
Net peak height (AVG) [16]: 7090
signal/noise [17]: 3.5
signal/noise [18]: 6
signal/noise [19]: 11.2
signal/noise [20]: 19.8
signal/noise [21]: 47.6

anti-Flu A Medix 7304 antibody
Signal/noise of test line [22]: 4.8
Peak Intensity [23]: 4.8 and 8.6
Peak Intensity(avg) [23]: 6.7
Peak Intensity [24]: 13.2 and 9.1
Peak Intensity(avg) [24]: 11.2
Peak Intensity [25]: 14.8 and 13.5
Peak Intensity(avg) [25]: 14.1
Peak Intensity [26]: 26.4 and 22.5
Peak Intensity(avg) [26]: 24.5
fluorescence intensity (AVG) [27]: 1270
fluorescence intensity (AVG) [28]: 1600
fluorescence intensity (AVG) [29]: 2280
fluorescence intensity (AVG) [30]: 3730
fluorescence intensity (AVG) [31]: 4080
fluorescence intensity (AVG) [32]: 8690
fluorescence signal [33]: 21100 and 20000
fluorescence signal (AVG) [33]: 20500
Signal/noise (S/N) ratio [34]: 2.03
Peak Intensity [35]: 2.2 and 3.3
Peak Intensity(avg) [35]: 2.8
fluorescence signal [36]: 2550 and 2400
fluorescence signal (AVG) [36]: 2470
fluorescence signal [37]: 794 and 776
fluorescence signal (AVG) [37]: 785
fluorescence signal [38]: 936 and 1040
fluorescence signal (AVG) [38]: 987
fluorescence signal [39]: 1420 and 1440
fluorescence signal (AVG) [39]: 1430
S/N [40]: 37.4
S/N [41]: 4.5
S/N [42]: 1.4
S/N [43]: 1.8
S/N [44]: 2.6

anti-Flu B Medix 9901 antibody
S/N ratio [45]: 4.96
fluorescence intensity (AVG) [46]: 1490
fluorescence intensity (AVG) [47]: 1580
fluorescence intensity (AVG) [48]: 2480
fluorescence intensity (AVG) [49]: 2710
fluorescence intensity (AVG) [50]: 5440
fluorescence intensity (AVG) [51]: 9990
